Source: paper PMC9482650, “Quantitative fragmentomics allow affinity mapping of interactomes” (Nature Communications, 2022)

Legend:
Experiment in all cases: holdup assay
Conditions in all cases: plain residues with an end cap or a label only (N-terminal biotin on a linker: none)
AHNAK2, Q8IVF2 = biological target: AHNAK2, Q8IVF2
PTPN4, P29074 = biological target: T1, PTPN4, P29074
T1 sequence (P29074 512-599, limits assumed, looked up): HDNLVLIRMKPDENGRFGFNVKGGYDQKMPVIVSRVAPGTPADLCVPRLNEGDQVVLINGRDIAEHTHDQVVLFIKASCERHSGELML

MAGI3_6, Q5TCQ9 = biological target: MAGI3_6, Q5TCQ9
NHERF2_1, Q15599 = biological target: NHERF2_1, Q15599
PDZRN4_2, Q6ZMN7 = biological target: PDZRN4_2, Q6ZMN7
PDZD2_3, O15018 = biological target: T2, PDZD2_3, O15018
T2 sequence (O15018 581-682, limits assumed, looked up): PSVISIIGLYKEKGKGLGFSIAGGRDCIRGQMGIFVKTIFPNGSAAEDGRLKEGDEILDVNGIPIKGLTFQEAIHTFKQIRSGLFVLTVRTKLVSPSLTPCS

GIPC1, O14908 = biological target: T3, GIPC1, O14908
T3 sequence (O14908 128-223, limits assumed, looked up): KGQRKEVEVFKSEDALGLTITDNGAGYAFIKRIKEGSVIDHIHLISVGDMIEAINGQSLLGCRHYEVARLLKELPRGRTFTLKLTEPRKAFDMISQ

PDZD4, Q76G19 = biological target: T4, PDZD4, Q76G19
T4 sequence (Q76G19 125-224, limits assumed, looked up): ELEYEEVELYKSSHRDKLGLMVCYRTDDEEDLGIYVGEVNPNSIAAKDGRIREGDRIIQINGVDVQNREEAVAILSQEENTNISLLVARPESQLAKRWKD

MAGI2_1, Q86UL8 = biological target: T5, MAGI2_1, Q86UL8
T5 sequence (Q86UL8 12-111, limits assumed, looked up): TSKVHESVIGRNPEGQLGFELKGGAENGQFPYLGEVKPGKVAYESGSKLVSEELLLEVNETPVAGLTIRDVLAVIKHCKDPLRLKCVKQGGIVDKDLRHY

USH1C_2, Q9Y6N9 = biological target: T6, USH1C_2, Q9Y6N9
T6 sequence (Q9Y6N9 206-303, limits assumed, looked up): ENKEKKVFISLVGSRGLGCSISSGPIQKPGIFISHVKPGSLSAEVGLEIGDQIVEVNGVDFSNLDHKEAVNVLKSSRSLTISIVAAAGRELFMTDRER

PREX1_1, Q8TCU6 = biological target: PREX1_1, Q8TCU6
GRIP2_4, Q9C0E4 = biological target: GRIP2_4, Q9C0E4
TJP3_1, O95049 = biological target: T7, TJP3_1, O95049
T7 sequence (O95049 6-103, limits assumed, looked up): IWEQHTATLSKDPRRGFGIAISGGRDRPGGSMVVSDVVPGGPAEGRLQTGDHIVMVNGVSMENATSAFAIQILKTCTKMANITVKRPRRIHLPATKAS

LMO7, Q8WWI1 = biological target: LMO7, Q8WWI1
MAGI3_5, Q5TCQ9 = biological target: MAGI3_5, Q5TCQ9
PDZD2_1, O15018 = biological target: T8, PDZD2_1, O15018
T8 sequence (O15018 80-192, limits assumed, looked up): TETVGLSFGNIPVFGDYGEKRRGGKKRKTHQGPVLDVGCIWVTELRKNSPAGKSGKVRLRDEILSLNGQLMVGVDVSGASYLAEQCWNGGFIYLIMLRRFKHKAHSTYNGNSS

MPDZ_3, O75970 = biological target: T9, MPDZ_3, O75970
T9 sequence (O75970 372-473, limits assumed, looked up): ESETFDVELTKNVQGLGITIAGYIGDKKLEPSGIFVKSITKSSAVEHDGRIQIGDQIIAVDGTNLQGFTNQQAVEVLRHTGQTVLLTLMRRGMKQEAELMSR

MAST1, Q9Y2H9 = biological target: MAST1, Q9Y2H9
IL16_2, Q14005 = biological target: IL16_2, Q14005
MAGIX, Q9H6Y5 = biological target: MAGIX, Q9H6Y5
PDZD7_2, Q9H5P4 = biological target: T10, PDZD7_2, Q9H5P4
T10 sequence (Q9H5P4 205-303, limits assumed, looked up): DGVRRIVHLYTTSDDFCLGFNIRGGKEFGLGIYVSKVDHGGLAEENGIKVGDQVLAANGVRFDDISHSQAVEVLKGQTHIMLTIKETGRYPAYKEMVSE

MPDZ_2, O75970 = biological target: T11, MPDZ_2, O75970
T11 sequence (O75970 252-347, limits assumed, looked up): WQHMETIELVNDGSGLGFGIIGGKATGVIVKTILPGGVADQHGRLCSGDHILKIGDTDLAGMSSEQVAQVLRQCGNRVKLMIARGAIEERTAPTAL

USH1C_3, Q9Y6N9 = biological target: T12, USH1C_3, Q9Y6N9
T12 sequence (Q9Y6N9 447-547, limits assumed, looked up): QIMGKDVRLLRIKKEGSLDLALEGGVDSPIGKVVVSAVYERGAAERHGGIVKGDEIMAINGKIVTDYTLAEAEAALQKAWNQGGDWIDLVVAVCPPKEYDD

SHROOM4, Q9ULL8 = biological target: T13, SHROOM4, Q9ULL8
T13 sequence (Q9ULL8 5-102, limits assumed, looked up): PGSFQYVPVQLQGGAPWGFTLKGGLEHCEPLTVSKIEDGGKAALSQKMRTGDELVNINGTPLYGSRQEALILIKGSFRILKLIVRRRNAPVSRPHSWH

Measured: pKd

PREX1_1, Q8TCU6, sequence (Q8TCU6 608-718): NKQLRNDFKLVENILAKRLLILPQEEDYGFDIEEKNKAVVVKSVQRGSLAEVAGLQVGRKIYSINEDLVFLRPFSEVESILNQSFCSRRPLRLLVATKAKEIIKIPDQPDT
LMO7, Q8WWI1, sequence (Q8WWI1 1037-1138): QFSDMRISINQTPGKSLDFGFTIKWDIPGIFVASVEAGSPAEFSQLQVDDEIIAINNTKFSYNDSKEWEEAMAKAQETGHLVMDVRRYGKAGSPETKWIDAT
MAGI3_5, Q5TCQ9, sequence (Q5TCQ9 847-941): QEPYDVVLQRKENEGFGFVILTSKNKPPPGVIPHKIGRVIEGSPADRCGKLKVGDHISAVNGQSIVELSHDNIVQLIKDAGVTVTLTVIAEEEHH
MAGIX, Q9H6Y5, sequence (Q9H6Y5 118-211): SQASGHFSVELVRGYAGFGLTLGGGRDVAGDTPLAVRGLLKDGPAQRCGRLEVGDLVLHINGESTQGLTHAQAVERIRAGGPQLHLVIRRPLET
MAST1, Q9Y2H9, sequence (Q9Y2H9 962-1065): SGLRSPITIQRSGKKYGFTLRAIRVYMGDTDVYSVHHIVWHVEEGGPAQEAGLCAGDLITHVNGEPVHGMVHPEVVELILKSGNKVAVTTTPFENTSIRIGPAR
MAGI3_6, Q5TCQ9, sequence (Q5TCQ9 1014-1103): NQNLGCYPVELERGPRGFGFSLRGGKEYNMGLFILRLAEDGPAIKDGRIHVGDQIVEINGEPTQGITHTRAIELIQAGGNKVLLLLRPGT
IL16_2, Q14005, sequence (Q14005 350-450): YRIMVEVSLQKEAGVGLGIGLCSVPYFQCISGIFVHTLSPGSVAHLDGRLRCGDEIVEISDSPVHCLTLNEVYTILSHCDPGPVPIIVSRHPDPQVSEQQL
GRIP2_4, Q9C0E4, sequence (Q9C0E4 446-548): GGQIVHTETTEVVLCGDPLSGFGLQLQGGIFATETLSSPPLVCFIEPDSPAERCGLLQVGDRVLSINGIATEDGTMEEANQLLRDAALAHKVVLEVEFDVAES
NHERF2_1, Q15599, sequence (Q15599 9-91): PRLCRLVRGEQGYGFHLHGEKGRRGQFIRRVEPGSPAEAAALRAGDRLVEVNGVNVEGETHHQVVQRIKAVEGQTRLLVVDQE
AHNAK2, Q8IVF2, sequence (Q8IVF2 108-193): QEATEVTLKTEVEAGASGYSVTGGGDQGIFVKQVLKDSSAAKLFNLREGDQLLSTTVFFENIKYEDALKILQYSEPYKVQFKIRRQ
PDZRN4_2, Q6ZMN7, sequence (Q6ZMN7 389-498): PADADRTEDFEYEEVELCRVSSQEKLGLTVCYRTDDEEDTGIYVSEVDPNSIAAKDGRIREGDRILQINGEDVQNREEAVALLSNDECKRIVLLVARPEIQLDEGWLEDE

B1: SARS-CoV2-E, P0DTC4 (peptide)
chain: NLNSSRVPDLLV
below the threshold: all assays above
